Biological target: T1, BMC05 (uncultured bacterium (metagenome))
T1 chain: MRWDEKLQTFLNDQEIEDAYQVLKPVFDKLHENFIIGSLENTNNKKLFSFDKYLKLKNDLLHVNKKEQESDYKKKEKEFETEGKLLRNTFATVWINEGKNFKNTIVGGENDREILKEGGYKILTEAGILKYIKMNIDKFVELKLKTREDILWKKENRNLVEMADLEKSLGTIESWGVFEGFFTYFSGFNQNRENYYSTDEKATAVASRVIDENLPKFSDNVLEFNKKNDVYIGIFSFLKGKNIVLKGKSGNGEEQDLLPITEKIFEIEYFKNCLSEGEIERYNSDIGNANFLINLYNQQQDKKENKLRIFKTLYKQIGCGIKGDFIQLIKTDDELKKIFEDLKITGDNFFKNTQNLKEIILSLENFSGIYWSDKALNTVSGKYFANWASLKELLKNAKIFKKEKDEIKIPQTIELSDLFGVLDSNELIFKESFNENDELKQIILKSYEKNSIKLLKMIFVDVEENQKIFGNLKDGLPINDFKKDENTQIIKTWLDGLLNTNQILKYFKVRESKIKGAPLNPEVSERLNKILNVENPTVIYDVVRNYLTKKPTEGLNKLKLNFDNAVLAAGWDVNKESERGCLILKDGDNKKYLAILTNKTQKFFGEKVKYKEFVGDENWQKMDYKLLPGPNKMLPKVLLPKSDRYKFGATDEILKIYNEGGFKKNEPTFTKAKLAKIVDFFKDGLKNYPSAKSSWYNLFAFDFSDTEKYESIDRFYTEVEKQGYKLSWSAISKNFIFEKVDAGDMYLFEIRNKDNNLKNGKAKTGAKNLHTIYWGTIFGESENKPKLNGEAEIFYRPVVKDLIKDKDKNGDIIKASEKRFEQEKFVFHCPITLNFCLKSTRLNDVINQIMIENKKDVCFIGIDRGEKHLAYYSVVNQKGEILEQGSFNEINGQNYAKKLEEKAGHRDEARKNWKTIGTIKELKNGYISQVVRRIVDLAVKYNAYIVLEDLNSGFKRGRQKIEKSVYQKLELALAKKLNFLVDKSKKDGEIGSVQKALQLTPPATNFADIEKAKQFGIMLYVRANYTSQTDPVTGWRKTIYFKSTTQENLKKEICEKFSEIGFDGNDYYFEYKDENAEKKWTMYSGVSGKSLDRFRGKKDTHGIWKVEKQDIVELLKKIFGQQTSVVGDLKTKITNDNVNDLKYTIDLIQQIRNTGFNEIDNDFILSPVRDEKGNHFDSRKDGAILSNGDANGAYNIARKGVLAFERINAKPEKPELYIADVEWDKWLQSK
Test: cell_activity; PAM not stated; E. coli depletion, 30 C
Procedure: Overnight grown pre-cultures were diluted into fresh 60 ml LB-Kanamycin (25 μg/ml) (Example 4) or LB-Kanamycin (25μg/ml)/Nourseothricin (50 μg/ml) medium (Example 5) to obtain an optical density at 600 nm (OD600) of 0.06. The inoculated medium was incubated at 30° C. on a horizontal shaker at 250 rpm until the culture reached an optical density at OD600 of 0.2. For induced BMC (NN) nuclease expression, 600 μl 20% L-(+)-arabinose (w/v) was added to the culture at a final concentration of 0.2% (v/v). The cultivation was continued until the culture reached an optical density at OD600 of 0.5. Subsequently 50 ml culture was transferred into one 50 ml conical tube and harvested by centrifugation at 4° C. for 5 min and 4000×g. Pelleted cells were resuspended in 50 ml ultrapure water (ice-cold) and centrifuged at 4° C. for 5 min and 4000×g.
This washing procedure was repeated twice. Washed cells were resuspended in 25 ml 10% (w/w) glycerin and re-centrifuged at 4° C. for 5 min and 4000×g. The pelleted cells were resuspended in 5 ml 10% (w/w) glycerin. After the final centrifugation step at 4° C. for 5 min and 4000×g, the cells were resuspended in 125 μl 10% (w/w) glycerin. Aliquots of 25 μl competent cells were stored at −80° C. until use. For the transformation procedure, aliquots of competent cells were thawed on ice and 50-100 ng plasmid DNA (CRISPR/gRNA-Ec) was added. Prepared cells were electroporated at 1800 V, 25 μF and 200 Ω in 1 mm gap size electroporation cuvettes, using the Bio-Rad Gene Pulser Xcell Electroporation System. Subsequently, 975 μL of NEB® 10-beta/Stable Outgrowth Medium was added immediately after the pulse to the transformed cells. Regeneration was done at 30° C. on a horizontal shaker at 250 rpm. Finally, 25-100 μl of the cell suspension was plated onto selective M9-Glucose agar plates supplemented with Kanamycin (25 μg/ml)/Ampicillin (100 μg/ml) (Example 4) or Kanamycin (25 μg/ml)/Ampicillin (100 μg/ml)/Nourseothrin (50 μg/ml) (Example 5). Growth of transformed E. coli cells on selective agar plates was screened for 48 h at 30° C.
As described above, each of the BMC01, BMC02, BMC03, BMC04, BMC05, BMC07, BMC08, BMC09, BMC10, BMC11, BMC12, BMC13, BMC14, or BMC15 nucleases was co-transformed into E. coli with a gRNA targeting the E. coli malQ gene to visualize a) the activity and b) the DNA targeting efficiency of the BMC nucleases.

B1: malQ gRNA (BMC stem-loop + 24 nt spacer) ; malQ protospacer (ssRNA ; dsDNA)
RNA: GAUUUCUACUAUUGUAGAUGUGGCGGUACGUUGAUGCAUCGCG
DNA 1: GTGGCGGTACGTTGATGCATCGCG
DNA 2: CGCGATGCATCAACGTACCGCCAC
activity: > 99.9 % colony reduction
